In US20210269480A1 (published 2021):
*1 amine or outer side, *2 acyl side, *3 side chain or, on linkers, in order; H or OH if unused. Bridges are numbered along the chain shown (N, C = ends). Primed or numbered codes have the meaning given here. Where no end group is shown, it is not given here. [ ]: non-standard residue; d: D form. TATA = O=C(CC[*:1])N1CN(C(=O)CC[*:2])CN(C(=O)CC[*:3])C1; 1Nal = N[C@@H](Cc1cccc2ccccc12)C(=O)O; Glutaryl = O=C(CCCC(=O)[*:2])[*:1]; Cya = N[C@@H](CS(=O)(=O)O)C(=O)O; Hyp = O=C(O)[C@@H]1C[C@@H](O)CN1; dCya = N[C@H](CS(=O)(=O)O)C(=O)O; hArg = N=C(N)NCCCC[C@H](N)C(=O)O; Cit = NC(=O)NCCC[C@H](N)C(=O)O; MMAE = monomethyl auristatin E; PABC′ = p-aminobenzylcarbamate; βAla = NCCC(=O)O; Sar = CNCC(=O)O

Assays:
[1] = target: Human Nectin-4 (residues Gly32-Ser349) with C-terminal FLAG tag, biotinylated (human) (UniProt Q96NY8); assay: SPR (Biacore), biotinylated human Nectin-4 on streptavidin chip
[2] = target: T1, Human Nectin-4 (residues Gly32-Ser349) with C-terminal FLAG tag, biotinylated (human, UniProt Q96NY8 32-349, randomly biotinylated with EZ-Link Sulfo-NHS-LC-LC-Biotin); assay: as above
T1 construct: range 32-349; Captured through biotin on a streptavidin CM5 chip in the SPR assay; also called PVRL4; not shown: C-terminal FLAG tag
T1 sequence (looked up): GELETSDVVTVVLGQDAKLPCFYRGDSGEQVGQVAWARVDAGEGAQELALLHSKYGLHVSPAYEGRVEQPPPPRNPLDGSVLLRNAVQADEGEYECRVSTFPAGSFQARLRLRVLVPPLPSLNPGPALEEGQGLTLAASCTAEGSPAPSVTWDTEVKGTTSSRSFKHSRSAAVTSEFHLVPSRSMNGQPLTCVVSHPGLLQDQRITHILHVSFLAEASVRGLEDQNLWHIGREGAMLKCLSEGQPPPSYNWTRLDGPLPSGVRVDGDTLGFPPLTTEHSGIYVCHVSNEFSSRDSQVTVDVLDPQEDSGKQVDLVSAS

human Nectin-4 = target: T2, human Nectin-4 (human, UniProt Q96NY8 32-349); assay: FP competition, tracer SEQ ID NO 217
T2 construct: a Gly32-Ser349 FLAG construct is described only under the SPR assay; also called PVRL4
T2 sequence (looked up): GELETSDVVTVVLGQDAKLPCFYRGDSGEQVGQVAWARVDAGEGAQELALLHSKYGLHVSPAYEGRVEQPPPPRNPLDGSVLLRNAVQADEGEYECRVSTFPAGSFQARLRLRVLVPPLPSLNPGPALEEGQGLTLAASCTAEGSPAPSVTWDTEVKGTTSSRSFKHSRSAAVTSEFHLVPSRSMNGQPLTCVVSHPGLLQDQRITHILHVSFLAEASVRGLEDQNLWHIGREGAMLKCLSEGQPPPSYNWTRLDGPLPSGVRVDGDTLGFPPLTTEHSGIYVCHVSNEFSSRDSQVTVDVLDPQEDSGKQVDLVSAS
Protocol: Peptides were diluted to an appropriate concentration in assay buffer as described in the direct binding assay with a maximum of 5% DMSO, then serially diluted 1 in 2. […] Measurements were conducted as for the direct binding assay, however the gain was determined prior to the first measurement. Data analysis was in Systat Sigmaplot version 12.0 where the mP values were fit to a user defined cubic equation to generate a Ki value: […]

[3] = target: T3, human Nectin-4 (human), Q96NY8; assay: FP competition, tracer SEQ ID NO 217; settings: remark: other sources report otherwise
T3 chain: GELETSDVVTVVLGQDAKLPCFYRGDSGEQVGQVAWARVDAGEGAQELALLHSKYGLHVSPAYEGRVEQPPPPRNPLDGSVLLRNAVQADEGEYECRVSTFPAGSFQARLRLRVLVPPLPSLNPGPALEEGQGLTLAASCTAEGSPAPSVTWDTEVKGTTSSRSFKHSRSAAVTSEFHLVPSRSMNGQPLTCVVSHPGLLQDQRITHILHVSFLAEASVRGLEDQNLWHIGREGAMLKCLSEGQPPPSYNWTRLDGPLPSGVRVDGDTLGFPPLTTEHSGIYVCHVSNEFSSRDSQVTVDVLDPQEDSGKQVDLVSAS

| Binder | Kd [1] [nM] | Kd [2] [nM] | other results |
| --- | --- | --- | --- |
| {Ac-βAla}-[Sar][Sar][Sar][Sar][Sar][Sar][Sar][Sar][Sar][Sar]CP[1Nal][dD]CM[Cya][Cya]WSTP[Hyp]WC (linker 11-15-25 via TATA (inferred)) [BCY8281] | 6.11 | – | – |
| {MMAE-PABC′-Cit-Val-Glutaryl-βAla}-[Sar][Sar][Sar][Sar][Sar][Sar][Sar][Sar][Sar][Sar]CP[1Nal][dR]CM[hArg]DWSTP[Hyp]WC (linker 11-15-25 via TATA, also called MMAE-PABC-Cit-Val-Glutaryl-BCY8235) [BCY8255] | – | 8.58 | – |
| {Ac-βAla}-[Sar][Sar][Sar][Sar][Sar][Sar][Sar][Sar][Sar][Sar]CP[1Nal][dCya]CM[hArg][Cya]WSTP[Hyp]WC (linker 11-15-25 via TATA (inferred)) [BCY8280] | 2 | – | – |
| Ac-CP[1Nal][dD]CM[hArg][Cya]WSTP[Hyp]WC (linker 1-5-15 via TATA (inferred)) [BCY8161] | 0.94 | – | Ki (human Nectin-4): 4 nM |
| {MMAE-PABC′-Cit-Val-Glutaryl-βAla}-[Sar][Sar][Sar][Sar][Sar][Sar][Sar][Sar][Sar][Sar]CP[1Nal][dR]CL[hArg]HWSTP[Hyp]WC (linker 11-15-25 via TATA, also called MMAE-PABC-Cit-Val-Glutaryl-BCY8231) [BCY8253] | – | 6.22 | – |
| {MMAE-PABC′-Cit-Val-Glutaryl-βAla}-[Sar][Sar][Sar][Sar][Sar][Sar][Sar][Sar][Sar][Sar]CP[1Nal][dR]CM[hArg]NWSTP[Hyp]WC (linker 11-15-25 via TATA, also called MMAE-PABC-Cit-Val-Glutaryl-BCY8232) [BCY8254] | – | 4.11 | – |
| {MMAE-PABC′-Cit-Val-Glutaryl-βAla}-[Sar][Sar][Sar][Sar][Sar][Sar][Sar][Sar][Sar][Sar]CP[1Nal][dCya]CM[hArg]DWSTP[Hyp]WC (linker 11-15-25 via TATA, also called MMAE-PABC-Cit-Val-Glutaryl-BCY8269) [BCY8783] | – | 0.804 | – |
| ACPFGCMKNWAWPIWCTNK (linker 2-6-16 via TATA) [BCY7424] | – | – | Ki [3]: 562 nM |
